Experimental data taken from US20170253933A1, “COMPOSITIONS AND METHODS FOR TREATING AND DIAGNOSING CHEMOTHERAPY-RESISTANT CANCERS” (Genentech, Inc., priority 2014, published 2017).
“Also recorded” adds a separate entry of the source.

System: ES-2 cells
Experiment: Chemotherapy resistance of ES-2 cells on protein-coated plates (Cell-Titre Glo viability, % growth benefit)
Assay type: cell-based
From the text: (A) Increased desmoplasia is correlated with POSTN expression and primary chemotherapy-resistance. Representative high magnification images of hematoxylin and eosin (H&E) staining of tumor specimens (upper panels) and POSTN ISH images (lower panel) are shown. Desmoplasia scores were defined as follows: 0=no desmoplasia, 1=few scattered desmoplastic foci abutting cancer cells, 2=several desmoplastic foci abutting cancer cells or moderate confluent (wider) desmoplasia, but not present throughout the section, 3=desmoplastic reaction throughout section, associated with most cancer cells. Labels: DS=desmoplastic stroma, NS=normal stroma, TC =tumor cells. Arrows point to examples of tumor cells. A dotted line encircles a region containing tumor cells. Size bars, 100 μm. (B) Summary of desmoplasia scores in 21 Plat-S primary, 18 Plat-R primary, and 21 Plat-R recurrent tumor specimens; (C) POSTN promotes chemotherapy-resistance in chemotherapy-sensitive ES2 ovarian cells in vitro. 96-well plates were coated with recombinant protein FN1 or POSTN or left uncoated before cells were plated into each well. 10 μM carboplatin or 10 nM taxol was then added to each well on the next day. Cell-Titre Glo® reagents were added at 72 hours after compound treatment to measure cell viability. The viability in coated wells was then compared with viability in uncoated wells to calculate % growth benefit. […]

B1: POSTN: recombinant full-length POSTN (Cat #3548-F2, R&D Systems) used to coat culture plates (protein, UniProt Q15063 22-836, looked up)
Periostin: NNHYDKILAHSRIRGRDQGPNVCALQQILGTKKKYFSTCKNWYKKSICGQKTTVLYECCPGYMRMEGMKGCPAVLPIDHVYGTLGIVGATTTQRYSDASKLREEIEGKGSFTYFAPSNEAWDNLDSDIRRGLESNVNVELLNALHSHMINKRMLTKDLKNGMIIPSMYNNLGLFINHYPNGVVTVNCARIIHGNQIATNGVVHVIDRVLTQIGTSIQDFIEAEDDLSSFRAAAITSDILEALGRDGHFTLFAPTNEAFEKLPRGVLERIMGDKVASEALMKYHILNTLQCSESIMGGAVFETLEGNTIEIGCDGDSITVNGIKMVNKKDIVTNNGVIHLIDQVLIPDSAKQVIELAGKQQTTFTDLVAQLGLASALRPDGEYTLLAPVNNAFSDDTLSMDQRLLKLILQNHILKVKVGLNELYNGQILETIGGKQLRVFVYRTAVCIENSCMEKGSKQGRNGAIHIFREIIKPAEKSLHEKLKQDKRFSTFLSLLEAADLKELLTQPGDWTLFVPTNDAFKGMTSEEKEILIRDKNALQNIILYHLTPGVFIGKGFEPGVTNILKTTQGSKIFLKEVNDTLLVNELKSKESDIMTTNGVIHVVDKLLYPADTPVGNDQLLEILNKLIKYIQIKFVRGSTFKEIPVTVYTTKIITKVVEPKIKVIEGSLQPIIKTEGPTLTKVKIEGEPEFRLIKEGETITEVIHGEPIIKKYTKIIDGVPVEITEKETREERIITGPEIKYTRISTGGGETEETLKKLLQEEVTKVTKFIEGGDGHLFEDEEIKRLLQGDTPVRKLQANKKVQGSRRRLREGRSQ
ES-2 cells on coated plates, in the absence of chemotherapy treatment
  cell growth with coating alone: small increase in cell growth
ES-2 ovarian cancer cells on coated plates, 10 μM carboplatin or 10 nM paclitaxel, viability at 72 hours
  resistance to carboplatin or paclitaxel treatment (viability in coated wells vs uncoated wells, % growth benefit): became resistant to carboplatin and paclitaxel treatment; also recorded: significantly more resistant to carboplatin or paclitaxel treatment
